The source of these data is the DeepSol protein solubility set.

The data set can be described thus: soluble on expression in E. coli; label from the status in PepcDB or PDB records.
As to “MAHHHHHHMPIPSPPPPMRFVPNGVGGGGARDLTAVKEPNFEVLETSSPVPARVIHNAPASAVPSGTQRPVEAPPSTHATGAQHHPKAVHSPPLACPALAMTSTPASSSSSSSSQQVAQLWQLVQDLTAENAVLQQRVRVLMEGETHDAILPGMLTAPSSPEETEALLLRVRRLEAALKVEAMEREALEVRLQAQEQVLTRLLRR”, the “soluble on expression in E. coli” value was “soluble”.

Regarding “MDKKELFDALDDFSQQLLVTLADVEAIKKNLKSLVEENTALRLENSKLRERLGEVEADAPVKAKHVRESVRRIYRDGFHVCNDFYGQRREQDEECMFCDELLYRE”, the “soluble on expression in E. coli” value is given as “not soluble”. For “MSLRDHGAPYGAHTLAYRPSGELLLVRHEGVDMWVLPGGELDRGESFQEAALRELGEESGIEATIEGLGMLGRVEFYCDGNMAWGVLPVYEAQAETTDIAVDDPDHEISEAQWFDKLPADTRDREEILQWRGQRFSGREGHHHHHH”, the “soluble on expression in E. coli” value was “soluble”. On to “MDSGINNISRFRIDHSFHKLHYAMHSAHSHTYYELFYMMHGNCTISIDNRLFTLSEGNIIFIPANSVHRTSYIGELVPERTYIEFSKDYIETISQTLGKNWAEHNLWGHILYIEKEKREKIDFLFREIQKEYDIVDGYSDCCIRQLFQYLIINLIRLDRNTKDIKEFITNSDNKINQNMIIAAKYIAENFKNDITLKDVASHLNLNPSYFSSKFKAFNNIGFAEYLRNIRVNHAEWYLIETDLSLSDIASECGFCNSNYFGDTFKLVNGISPSEFRKNNKPKKAEN”, for which the “soluble on expression in E. coli” value is listed as “not soluble”.

“NKSDMNHFMQVLRYLDPIHYLKATNDNGFPMSRMYSNQTVTIGGTITQPLPFKPDGENNVKLQRVVAKLDVNIVEGVENLQKIELCNANVHYRLVPNQSEPIQFYGPVELRRVGTTNQWLGYMPEAIVESTKWWGNTGNAENKPINFFRLTTRGGLVYDVPIITHEGAIPGGQYLPFAKGLLADKPSYTVYRNRHYIYRIKTLPDKIEVKYSICDWNIVTNDTYMGYGYNVGVDEQGNVTITNTMQNCDPHVVRLVAKNGAYFGSQPTDTSVEFAELANGASQTFKVNKDAVAVGSAYLEVYYNPDPNATGVVPDKVFIKK”: the “soluble on expression in E. coli” value was “not soluble”. As for “MSLNTVVTALPYFQERAERVASAINAEFIHYHSGLFSELYRTTQRIVAIMAIGIVIRNIAPLIHDKWTDPAVVVISPDMQYAIPVLGGHHGANDLVYLLQERCGLTPVITTATEATGREAVEVLANREHLRIVNTRSTRQANASVLTGSAKVYRLPGPGMVIAGSGVSFLVADGPYSVGIGCRLGTSADEIVHAIHSACETAGISQEDIAIYATGGIKTHESGLLDAVRTLGRNIIFLNHSDLSEVAPPSQSAASRFGLPGVAEPAALAVSVHHHLILEKQIYGNVTIAIAEEGHHHHHH”, the “soluble on expression in E. coli” value is “not soluble”. Take “RGDSLNYRLLRPEVEKTGLQYPLVLFLHGAGERGSDNEKQLTHGGQMFLNPVNREKYPAFVLVPQCPEKDYWAYTSRPSSFIPSEMPVGQEITPVLRAVKELLDTYLDLPQVDRNRIYVVGLSMGGMATYDLAVRFPDTFAAAVPICGTVNPVRLADAANVRFRIFHGDADNVVPVEGSREAYKALKNLGAEVEYIEFPGCNHGSWNPAFNYPGFMEWLFAQRK”: the “soluble on expression in E. coli” value is “not soluble”. “TTLASIGKDIIEDADGIAMPHQWLEGNLPVSAKCTVCDKTCGSVLRLQDWRCLWCKAMVHTSCKESLLTKC”: the “soluble on expression in E. coli” value was “soluble”. For the sequence “MFQVPDSEGGRAGSRAMKPPGGESSNLFGSPEEATPSSRPNRMASNIFGPTEEPQNIPKRTNPPGGKGSGIFDESTPVQTRQHLNPPGGKTSDIFGSPVTATSRLAHPNKPKDHVFLCEGEEPKSDLK”, the “soluble on expression in E. coli” value is reported as “not soluble”. Take “AKVEVGDEVGNFKFYPDSITVSAGEAVEFTLVGETPHNIVFDIPAGAPGTVASELKAASMDENDLLSEDEPSFKAKVSTPGTYTFYCTPHKSANMKGTLTVK”: the “soluble on expression in E. coli” value is “soluble”. Take “MSLNSQGYAVVDFETTGLSPAKGDRAIEIGLVHVAPDGTLEDEHETLIHVDRSVGASWVHHITARELLHAPDFEGIAHELRDLLAGRVFVAHNVSFDSRFLLAEYSRMGASIPVDQSTMLCTMKLSRSLIGRGKLADCCEYFGIANEDAHSALSDAHATAILLGRLLEADPKWPGFQRRLDAAGAAAEQWPTFATLPKKEWLPRGTHLAEGHHHHHH”: the “soluble on expression in E. coli” value is on record as “soluble”. For the sequence “GRRIQGQRRGRGTSTFRAPSHRYKADLEHRKVEDGDVIAGTVVDIEHDPARSAPVAAVEFEDGDRRLILAPEGVGVGDELQVGVDAEIAPGNTLPLAEIPEGVPVCNVESSPGDGGKFARASGVNAQLLTHDRNVAVVKLPSGEMKRLDPQCRATIGVVGGGGRTDKPFVKAGNKHHKMKARGTKWPNVRGVAMNAVDHPFGGGGRQHPGKPKSISRNAPPGRKVGDIASKRTGRGGNE”, the “soluble on expression in E. coli” value was “soluble”. Take “HMSNPLGELVKALEKLSFKPSDVRIYSLLLERGGMRVSEIARELDLSARFVRDRLKVLLKRGFVRREIVEKGWVGYIYSAEKPEKVLKEFKSSILGEIERIEKMFTDGS”: the “soluble on expression in E. coli” value is reported as “soluble”. Turning to “MKFFVFALILALMLSMTGADSHAKRHHGYKRKFHEKHHSHRGYRSNYLYDNLEHHHHHH”, the “soluble on expression in E. coli” value is reported as “not soluble”. Take “FLPMSREEMDQLGWDACDFILVCGDAYIDHPSFVSGIIGRVLEAQGFRVGIIAQPDWTNVESFRVLGKPTIAWGVTAGNMDSMINRYTADRKIRSDDAYSPNNEPNKRPDRAATVYCQRCREAFPDVPVLLGGIEGSLRRIAHYDYWSDKVRRSILMDSKADLLMYGNGERAIIDVMHRLAKGEKIHEITDVRGTAFIINKHNKASKAQFIEIASNDVDTVGRVDPIINPYVMTEDIDGCEVEKEKGNSLAQYQNFQKEIVSKPVVREGDQLDKDTQIIQLKPVPSKAIKHKLPPRELAVIRLPSFEEVADDHVLYAHANRILHLETNPGNARALVQRHGERDVWINPPPIPLTTEEMDYVFDLPYARLPHSAYGDARFPAFDMIKFS”: the “soluble on expression in E. coli” value is “not soluble”. As to “MVMFMVFRILGRMTKIEKEIKEEEAKYDLIIKNEAKIEPIVAEEDMEFKQGDIKPIRIKKIKIPPMSVLLICPYGRHRVGHVVAVGEEVPMPIDVEREVDMAMFACGFEGEVKKGDLIGMLLILAAEKRELEHHHHHH”, the “soluble on expression in E. coli” value is “not soluble”. In the case of “AHHHHHHGSAELWEIVSFLDEYLKISEYPDKSSNGLQVEGKEEVNTIAFAVDACLDTIVKARAFNADMLIVHHGLIWGGVKYVKGLFAKRVKELLKSNMNLYAAHLPLDAHPEVGNNAQLLKLLGLEPKEKFGEYHGVMIGYIGEFEEEKPLPLIAQMLAEKLPVDYVKSYEFGVQEIKRVGVVSGGGGFAVEEASEKGVDLFITGEFTHEDYRAAEDLRLSVIAAGHYATETLGVKALMPILREKFGVKTIFIDSPTGL”, the “soluble on expression in E. coli” value is “not soluble”. Turning to “MELINKDTLQIKEFISSLDSMLDGIESIVKHYKPHLNGERFLSNNEVSKKLNVSLRTLQEWRDTGLIPFIQIKGKIIYRQSDIDKLLQKHYFEGWKE”, the “soluble on expression in E. coli” value is given as “not soluble”. To “MVKGDITTAFIAEEYPDGFQGAVLDEPTLRRVAAAAAAMNRVAEIRRTRISGTMNNHERHVGVDWVVALQGESYHVSIAADREGSTVSFSDGSSLRVTSDWTPGQPLEHHHHHH” belongs “not soluble”. Take “MKKLIINYTELVDYLLENRGMDGYIYFYESMETEQGIVISFSTFDTGDSIYRMKFCPSDHGYDTSLEPGSYSQSEYGTSFEEEDVEGYIAGLDEIIADKYKEFYDEDVEVVFVD”: the “soluble on expression in E. coli” value is “soluble”. With “MAKPVVIGSRSFRTQSSALDHYKALLHRYQDGQRIADPADHTDLVALIERFDPVLDAVGEPAKGAGQIAHFERRLNTGIGWSTPGFWVVRQDGTETDFSYIDAVKGRPKGRSQDFYNACRQAVALDLVLAKKQAFAQYGDDQGRVECELTGKMVTIDDAHLDHAWPYFSHMVSGFRAARGWSRDIPDGIVSTPADGQTTATFLDSAVTEAFRAFHHDQAVLRVLSREANLQTASSARRPKVARPVRLA”, the “soluble on expression in E. coli” value was “not soluble”. As to “MIRSIFIPPTSITATSRLFYGMRAYSTKLEKASLQKYLHDPVKVTVIPITDKESFIYYKHTDNLFNSQSRILKAEKWIVEKSAKLWRKLKKSPKSYNKKIVSMVQSLLNSTPWSENSLLTIPSESYILKRIKGEKDKTQEIRLTLKDYTVKAEQVDTQPLHVYYPPGISSPDECLRQMKKLYQEGLIYHKKWTLYCLLGLPLTIPLILIPLIPNVPGFYLSYRAYVNIKAYLGAKHLKSLLESSKQNLEFRELLGYTEVYKRGTSSRTQGNQKESKGAPELLLNKKTLPLILDFLEVHELESDLNKVILQESKSQEKNKI”, the “soluble on expression in E. coli” value is “not soluble”. To “MSLSERTFNWKNKDIRAQVDVVDSKLLPTLLLRNALVLNPYVKQWLKKNIWIYQDRIVYVGHELPNRAEEIHTIDCEGKYIVPGYIEPHAHPFQIYNPQTLAEYVSQYGTTTFVNDNLFLLLQSGKKKALTILNELKKQPVQYFWWSRYDLQTEVLNEDHVLPFDVRKQWIEHPDVIQGGEMTGWPRLVDGDDLMLHCMQATKKQRKRIEGHFPGASDKTLTKMKLFGADCDHEAMTGDEVMRRLELGYYVSLRNSSIRPDVRKILQELHEKGFRYYDHFFYTTDGATPNFYKGGMTNELIRIALEEGVPAIDAYNMASFNIAKYYQMDDYLGVVGPGRLASLNILEDPLNPNPVTVLSKGTILRENGCDLKAFTKTDWHKGGLVPLELSYDMTMDDLQFSMPMGVKMRNAVIMEPYMIEIDNSMEQLSFDHDESYLTMLDRHGKWRVNTMIKGFASSVQGFVSSFTTTGDIVAIGKNKADMLLAFARMKEIGGGIVLAENGNILHEIPLALCGCASSEAYEDVLEKEQKLRDLLTERGYEFCDPIYTLLFLQSTHLPYIRITPRGIFDVMKKTVLFPSIMREGHHHHHH” belongs “not soluble”; to “MCMKQSLFGRVRDAILADFHNVLDEKERKNPIAMLNQYLRDSEREITKIEKLIQRHKTLKSNFARELEQARYFVNKRSKQALIAQEAGELQLHERALEEVAYYEGQVTRLEEMYAGVVEQIDELERRLSEMKNKLKEMHAKRMELMARENMAHANRRMNTAMHKMDENNPFLRFEEIEEHIRDLETRMNEEHERDTFDMKIAKLEREMKEKNDVSLTKELTKLEHHHHHH”, “not soluble”; to “MSKRRYLTGKEVQAMMQAVCYGATGARDYCLILLAYRHGMRISELLDLHYQDLDLNEGRINIRRLKNGFSTVHPLRFDEREAVERWTQERANWKGADRTDAIFISRRGSRLSRQQAYRIIRDAGIEAGTVTQTHPHMLRHACGYELAERGADTRLIQDYLGHRNIRHTVRYTASNAARFAGLWERNNLINEKLKREEV”, “not soluble”.

For “MSLDEKLRTSGVQVIGDIAWGTHFCQFYRTQEELVNVVCPYLKAGLEGNELCIWALPRDFETKKEAEGPLRRTIPKLDIYLEKGQMEIISYKDRYAEKEIPDSKKALENLIKKADYALLNGYSGLRLVQDTSWLKNDWKNLTGYEEELDIAIENRRITALCTYSSGKFDTDETIYAALSHRFVLVKKEGNWEKVENPRLKKAEERVIQPSEEVETKTEEENENLKKLLEERTVELTEAYKSLKVNEKQFLQIRKMTHIGNWKWDILTGELHWSDEVYRIFGRDPERFKATCDAFLGSVHPDDREYLINSIKKDFDEQIRNIDYRIVLPDGEERTVRTRVEITFDEEGHHHHHH”, the “soluble on expression in E. coli” value is recorded as “not soluble”. “EFGYSEMSAIGALIKALPESCALHLANSSVIRYAQLYQVPSTIEVCCNRGTSGIEGSLSTAVGYAAGSDKLNFIVIGDLSFFYDMNALWNINVRPNLRILLLNNGGGEIFHTLPGLDMSGTSHKYITAVHKTSAKGWAEERGFLYQRVENEEQLAEAMKTFTQPEAMEQPVLMEVFSN”: the “soluble on expression in E. coli” value was “not soluble”.
